Entries after “also recorded” stand apart in the source; their conditions may differ. Bridges are numbered along the chain shown (N, C = ends). Where no end group is shown, it is not given here.
Experiments:
Type in all cases: binding
[1] = biological target: T1, human recombinant LANCL1 (Homo sapiens, UniProt O43813); test: In-gel fluorescence: photolabelling of recombinant LANCL1 with PAL probes, with or without excess competitor
T1 construct: purchased ABCAM ab181923; host or cells: E. coli
Method: The in-gel fluorescence protocol can be briefly described as follows:
1. LANCL1 Labelling, Assay on 96 Well Plate, Volume of the Reaction 40 μl in PBS
3 μg/well of human recombinant LANCL1 (ABCAM catalog no. ab181923, 1 mg/ml; expressed in E. Coli and incorporating an N-terminal 23 amino acid hexaHis tag; UniProtKB/Swiss-Prot Accession no: O43813);
• Vehicle DMSO • ±LAT8881 (a cyclic peptide fragment of human growth hormone; SEQ ID NO:1) • SEQ ID NO:1) as competitor @ 25, 50, 100 or 200 μM, pre-incubation 10 min, 4 μl of a stock solution 10-fold concentrated • ±LAT9991-PAL, LAT7771-PAL or LAT9993-PAL probes @ 1 μM, incubation 30 min at room temperature on a plate agitator (protected from light), 4 μl of a stock solution @10 μM
• Irradiation @ 365 nm 20 min (4° C., on a support containing ice) Transfer 40 μl in a clean Eppendorf tube
• Reduction: DTT 10 mM, 30 min @ 56° C. • Alkylation: Iodoacetamide 30 mM, 45 min @ RT Click-iT AzideTamra of 60 μL samples
• Acetone Precipitation −20° C. ON • Dry pellet resuspended in 30 μL 1% SDS in 50 mM Tris-HCl pH 7.5 • Photolabeled LANCL1 was tagged with tetramethylrhodamine (TAMRA) azide @100 μM TAMRA azide by copper click chemistry using the Click-iT Protein Reaction Buffer Kit (ThermoFisher Scientific) during 30 minutes • Precipitation using the chloroform-methanol method, pellet was air-dried for 10 min at room temperature, resuspended in 30 μL SDS loading buffer (Bio Rad's XT Sample Buffer containing 2.5% v/v 2-mercaptoethanol) and heated (60° C., 30 min)
• SDS-PAGE (4-15% Criterion™ TGX Stain-Free™ Protein Gel, Bio Rad) • Analyzed by in-gel fluorescence scanning using a ChemiDoc™ MP Imaging System (Bio Rad) with a green LED light as an excitation source and a BP600/20 nm emission filter

[2] = biological target: T2, LANCL1 (Rattus norvegicus, UniProt Q9QX69); test: Streptavidin pull-down of probe-labelled proteins from spinal cord microsomal fraction, anti-LANCL1 Western Blot; parameters: from tissue; host or cells: rat spinal cord, microsomal fraction
T2 sequence (Q9QX69 whole entry): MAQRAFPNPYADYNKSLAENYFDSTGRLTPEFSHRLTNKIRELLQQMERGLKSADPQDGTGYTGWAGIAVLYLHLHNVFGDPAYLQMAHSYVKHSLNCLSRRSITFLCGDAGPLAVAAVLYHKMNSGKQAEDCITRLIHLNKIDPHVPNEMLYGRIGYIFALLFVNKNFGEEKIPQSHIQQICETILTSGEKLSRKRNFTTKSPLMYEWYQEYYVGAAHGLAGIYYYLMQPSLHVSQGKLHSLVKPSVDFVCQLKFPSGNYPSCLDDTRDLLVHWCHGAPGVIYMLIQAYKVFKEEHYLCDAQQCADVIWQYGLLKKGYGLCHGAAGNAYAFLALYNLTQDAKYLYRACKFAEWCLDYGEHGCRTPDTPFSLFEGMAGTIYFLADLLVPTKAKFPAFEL
Method: To confirm the LANCL1 enrichment observed by mass spectrometry sequencing pull-down experiments, commercial antibodies to LANCL1 (polyclonal rabbit anti-LANCL1, PA557107 from Invitrogen) were used to identify the presence of the LANCL1 in nerve microsome preparations. Briefly, rat spinal cord were lysed in lysate buffer, (sodium phosphate buffer 5 mM pH7.4, sucrose 0.32M+protease inhibitors (cOmplete ULTRA tablets from Roche, mini easy pack, 05892970001)). All the following steps were done on ice. The samples were homogenized, and the total extract centrifuged at 10000 g during 20 minutes. The supernatant was kept and the lysis step was repeated on the pellet adding 10 ml more of lysis buffer, followed by a new centrifugation step. This step extraction was done two times as described and the supernatants were pooled before centrifugation at 105000 g using the Ti50.2 Beckman rotor for 90 minutes at 4° C. The pellet was kept as a microsomal fraction and stored at −80° C. […] Images acquired with the ChemiDoc™ MP Imaging System were analyzed with Imagelab software (Bio-Rad).

[3] = biological target: T2, LANCL1; test: Mass spectrometry of excised gel bands from PAL cross-linked homogenates (PALMS); parameters: from tissue; host or cells: nerve tissue homogenate of neuropathic animals
Source text: Having identified at least three molecular weight bands as representative of the potential targets, the 12-15 kD, 37 kD and 50 kD regions of the gel were excised, subjected to limited proteolysis and analysed by mass spectrometry to identify peptides from proteins that were differentially enriched. The detection of at least two different peptides from a protein that is enriched in the LAT9991-PAL cross-linked samples when compared to (i) the un-crosslinked samples and (ii) LAT9991-PAL in the presence of excess LAT8881 (SEQ ID NO:1; YLRIVQCRSVEGSCGF) was considered a positive signature. LAT9991-PAL, LAT9993-PAL and LAT7771-PAL were also used. LAT9993 (SEQ ID NO:41) has the amino acid sequence SCRSRPVESSC.

T1 sequence (O43813 with tags, fused parts or gaps): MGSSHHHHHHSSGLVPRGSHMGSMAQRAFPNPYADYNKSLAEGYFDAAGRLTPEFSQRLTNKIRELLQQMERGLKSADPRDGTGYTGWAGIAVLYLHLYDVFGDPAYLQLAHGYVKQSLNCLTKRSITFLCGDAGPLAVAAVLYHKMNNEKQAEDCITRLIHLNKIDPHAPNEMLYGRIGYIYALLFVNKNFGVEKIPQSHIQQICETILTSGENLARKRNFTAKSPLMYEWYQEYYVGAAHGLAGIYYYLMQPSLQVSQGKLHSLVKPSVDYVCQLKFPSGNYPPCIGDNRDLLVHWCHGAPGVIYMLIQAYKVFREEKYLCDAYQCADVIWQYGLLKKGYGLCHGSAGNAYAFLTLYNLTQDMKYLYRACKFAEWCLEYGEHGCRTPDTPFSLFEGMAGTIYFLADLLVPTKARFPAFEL

| Binding of PAL probe to recombinant LANCL1 ([1]; in-gel fluorescence after UV (365 nm) cross-linking) | Substance | Detection of LANCL1 in eluates of probe pull-down (Western Blot) ([2]; 5 μM probe, rat spinal cord microsomal fraction) | LANCL1 bound / enriched in PAL probe cross-linked samples (mass spectrometry) ([3]; vs un-crosslinked samples (CU) and samples with excess LAT8881 (COMP), 37 kDa band) | Inhibition of LAT7771-PAL binding to recombinant LANCL1 by excess competitor ([1]; probe LAT7771-PAL, excess LAT8881) | Inhibition of LAT9991-PAL binding to recombinant LANCL1 by excess competitor ([1]; probe LAT9991-PAL, excess unlabelled competitor) | Inhibition of LAT9993S-PAL binding to recombinant LANCL1 by excess competitor ([1]; probe LAT9993S-PAL, excess LAT8881) | LANCL1 level in LAT9991-PAL pull-down eluate in presence of excess competitor ([2]; 50 μM competitor, 10-fold excess over LAT9991-PAL) | Inhibition of PAL probe binding to LANCL1 from tissue homogenates by excess competitor ([3]; probes LAT9991-PAL, LAT9993-PAL, LAT7771-PAL, excess LAT8881) |
| --- | --- | --- | --- | --- | --- | --- | --- | --- |
| bound to recombinant LANCL1 | LAT9991-PAL: cyclic peptide of SEQ ID NO:12 (LAT9991) conjugated to the PAL (Photo-Activated Labelling) grouping (CRSVEGSCG; disulfide 1-8 (inferred); also: PAL group on N-terminal Cys-Arg part) | could only be detected in the eluates of LAT9991-PAL samples as a specifically bound protein | met the arbitrary statistical criteria for a “hit”; also recorded: enriched by several fold-changes; also recorded: bound to LANCL1 | – | – | – | – | – |
| – | YLRIVQCRSVEGSCGF [LAT8881, a cyclic peptide fragment of human growth hormone] | – | – | inhibited | inhibited | inhibited | reduced | inhibited |
